The values that follow come from article doi:10.1101/2021.12.11.472236 (bioRxiv, 2021).

First the molecules themselves.
B1: 10-40 Fab (Fab, V domains shown)
VH: QLQLQESGPGLVKPSETLSLTCTVSGGSISSSNFYWGWIRQPPGKGLEWIASITYSGRTFYNPSLKSRVAISVDTSKNQFSLKLSSVTAADTAVYYCARTFPSYYDRSGYHYLNYGMDVWGQGTTVTVSS
VL: NFMLTQPHSMSESPGKTVTISCTRSSGSIASNYVQWYQQRPGSSPTTVIYEDNQRPSGVPDRFSGSIDSSSNSASLTISGLKTEDEADYYCQSYDSSSWVFGGGTKLTVL
B2: 11-11 Fab (Fab, V domains shown)
VH: QVQLQESGPGLVKPSQTLSLTCTVSGGSISSGGYYWSWIRQHPGKGLEWIGYIYYSGSTYYNPSLKSRVTISVDTSKNQFSLKVSSVTAADTAVYYCASSNYYDGSGYNLLESYGMDVWGQGTSVTVSS
VL: QSVLTQPPSVSGAPGQRVTISCTGSSSNIGAGYDVHWYQQLPGTAPKLLIYGNSNRPSGVPDRFSGSRSGTSASLAITGLQAEDEADYYCQSYDSSLSGSWVFGGGTKVTVL
B3: 10-28 Fab (Fab, V domains shown)
VH: QVQLVESGGGVVQPGRSLRLSCAASGFTFSSYDMHWVRQAPGKGLEWVAVISYDGSSKFYAESVKGRFTISRDNSKNTLYLQMNSLRAEETAVYYCVKDGEQLVPLFDYWGQGTLVTVSS
VL: not shown

Several values for one entry are separate records, joined by “and”; a condition that tells them apart may be missing. Equal entries are not always repeated.

In the first test the target is S2P-prefusion-stabilized spike protein from SARS-CoV-2 B.1.351 (SARS-CoV-2, B.1.351 (Beta), strain). Put plainly: cryo-EM structure.
As usually defined, the stoichiometry N is the number of molecules, sites or subunits per partner or assembly. B1: the “stoichiometry N” value stood at 3 Fabs per spike.
Still for that read-out and setting: the figure for B2 is 3 Fabs per spike and 2 Fabs per spike; for B3 it is 3 Fabs per spike.

The next test deals with S2P-prefusion-stabilized spike protein from SARS-CoV-2 WA-1 (SARS-CoV-2, WA-1, UniProt P0DTC2, stabilised). Put plainly: cryo-EM structure.
For B1, the binding result is on record as “binds”.
The same measure, in the same setting: the entry for B2 is “binds”.
On the same count and under the same terms, the entry for B3 is “binds”.
